# Source: US11306137B2, “Antibody binding agents that bind Acinetobactor and uses thereof” (priority 2015, dated 2022)
# “Also recorded” adds a separate entry of the source.
# B1: C8: mouse IgG1-kappa monoclonal antibody from hybridoma 9.1C8 (ATCC PTA-122177); light chain SEQ ID NO:2, heavy chain SEQ ID NO:3 (antibody, listed as Mus musculus, V domains shown)
# VH: EVQLQQSGPELVKPGASVKISCKASGYSFTGYTMNWVKQSHGKSLEWIGRINPYNGDSFYNQKFKGKATLTVDKSSNIAHMEFLSLTSEDSAVYYCGRSGDGPWFAYWGQGTLVTVSA
# VL: LPLSLPVSLGDQASISCRSSQSIVHNNGNTYLEWYLQKPGQSPKLLIYKVSNRFSGVPDRFSGSGSGTDFTLKISRVEAEDLGVYYCFQGSHVPLTFGAGTKLEIKGSRS
# How the values were obtained:
# A. baumannii HUMC1 = assay: Confocal immunofluorescence surface binding; settings: FIG. 5
# Procedure: To detect surface binding of A. baumannii by purified C8 MAb, mid-log-growth A. baumannii strains were washed twice, resuspended in PBS, stained with NucBlue Reagent (Life Technologies) for 30 min at 37° C., pelleted, and washed again in PBS. Primary antibody, either C8 MAb or Isotype Control IgG1 (R&D Systems, Product #MAB002), was added to 100 μL of bacteria to a final concentration of 100 μg/mL and incubated for 30 min at 37° C. Bacteria were washed twice and resuspended in secondary antibody goat anti-mouse IgG AlexaFluor647 (Life Technologies, Product #A21235) at a final concentration of 2 μg/mL for 20 min at 37° C. After washing twice with PBS, bacteria was resuspended in 50 μL PBS, and 10 μL drops were placed on slides and mounted with cover slips and nail polish. Images were taken using a Spinning Disc Confocal Microscope (Zeiss Axiolmager).
# [1] = system: A. baumannii HUMC1 uptake by RAW 264.7 macrophages; assay: Opsonophagocytosis assay (macrophage uptake); assay type: cell-based; settings: FIG. 6B
# Procedure: RAW 264.7 macrophages (1×10^6 per well) were grown on coverslips in 12-well plates and stimulated with 100 U/mL IFN-γ. Cells adhered to the cover glass overnight in a humidified incubator at 37° C. supplemented with 5% CO2. Cells were washed three times with HBSS and bacteria were added to wells at a ratio of 10:1, bacteria to macrophages, in the presence (or absence) of 10% fetal bovine serum (FBS), either heat-inactivated or complement-active. Plates were briefly centrifuged at 250×g to cohere the bacterial cells to the bottom of the plate and incubated at 37° for 2 hr. Macrophages were washed three times with PBS, fixed with 100% methanol, and Hema 3-stained according to the manufacturer's protocol (Fisher Scientific). To quantitate bacteria counts per macrophage, coverslips were imaged on a Zeiss Axiolmager microscope. Macrophages harboring visible adherent or internalized bacteria were counted and divided by total macrophages to determine the percentage of cells with associated bacteria. The number of bacteria associated with each macrophage was also quantitated and recorded. A minimum of 100 cells per coverslip were counted.
molecule,measurement,setting,value
B1,surface binding by immunofluorescent staining,A. baumannii HUMC1,confirmed diffuse surface binding
same,macrophage uptake of A. baumannii,"[1]; C8 5 μg/mL, heat-inactivated or complement-active serum",markedly increased; also recorded: markedly improved macrophage uptake
same,macrophage uptake of A. baumannii with active complement,[1]; C8 MAb plus normal serum with active complement,highest uptake; also recorded: enhancement was greatest with complement
